Data on 5 molecules can be found in patent publication US20240409645A1 (DUALYX, published 2024).

The target of the assay is T1, human IL-2 receptor (IL-2Rα/IL-2Rβ/γc) (human, UniProt P01589 22-272; P14784 27-551; P31785 23-369).
T1 sequence 1: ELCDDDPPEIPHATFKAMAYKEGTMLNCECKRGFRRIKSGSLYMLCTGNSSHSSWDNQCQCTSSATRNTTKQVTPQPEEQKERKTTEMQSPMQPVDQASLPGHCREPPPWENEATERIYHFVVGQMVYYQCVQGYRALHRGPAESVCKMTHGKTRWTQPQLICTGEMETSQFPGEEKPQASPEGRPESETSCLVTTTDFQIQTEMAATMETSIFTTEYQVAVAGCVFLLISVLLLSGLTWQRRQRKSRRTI
T1 sequence 2: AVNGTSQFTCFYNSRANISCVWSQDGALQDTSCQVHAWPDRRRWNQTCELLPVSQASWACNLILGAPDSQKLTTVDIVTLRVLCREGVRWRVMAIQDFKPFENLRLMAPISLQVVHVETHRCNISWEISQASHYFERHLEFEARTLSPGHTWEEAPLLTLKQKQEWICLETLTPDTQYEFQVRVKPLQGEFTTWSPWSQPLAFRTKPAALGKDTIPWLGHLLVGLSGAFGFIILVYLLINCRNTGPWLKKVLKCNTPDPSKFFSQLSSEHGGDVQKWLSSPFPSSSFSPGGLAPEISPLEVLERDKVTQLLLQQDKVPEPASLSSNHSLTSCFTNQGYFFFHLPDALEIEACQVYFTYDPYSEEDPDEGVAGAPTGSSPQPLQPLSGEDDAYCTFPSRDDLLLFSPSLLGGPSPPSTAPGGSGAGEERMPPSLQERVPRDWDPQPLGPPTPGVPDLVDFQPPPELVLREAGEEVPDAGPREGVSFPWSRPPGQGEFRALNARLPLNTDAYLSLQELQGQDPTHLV
T1 sequence 3: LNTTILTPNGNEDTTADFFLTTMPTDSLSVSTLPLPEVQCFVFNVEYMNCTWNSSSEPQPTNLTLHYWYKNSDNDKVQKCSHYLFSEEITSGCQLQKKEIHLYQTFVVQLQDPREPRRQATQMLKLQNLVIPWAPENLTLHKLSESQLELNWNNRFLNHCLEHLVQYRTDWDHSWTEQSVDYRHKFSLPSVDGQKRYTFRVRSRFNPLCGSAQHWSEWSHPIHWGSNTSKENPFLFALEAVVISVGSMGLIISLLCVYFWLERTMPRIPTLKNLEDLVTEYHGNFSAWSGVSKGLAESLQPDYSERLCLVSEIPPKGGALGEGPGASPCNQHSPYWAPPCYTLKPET
In words: cell-based or functional assay.

B1: DC00045 (other)
chain 1: QVQLVESGGGLVQPGGSLRLSCATSGFTFRNNFMSWVRQAPGKGLEWVSTISYGGESTTYAESVKGRFTISRDNAKNTLYLQMNNLKPEDTAVYYCAKATSYDSIRSGSRGQGTQVTVSSDKTHTCPPCPAPEAAGGPSVFLFPPKPKDTLMISRTPEVTCVVVDVSHEDPEVKFNWYVDGVEVHNAKTKPREEQYNSTYRVVSVLTVLHQDWLNGKEYKCKVSNKALGAPIEKTISKAKGQPREPQVYTLPPSRDELTKNQVSLTCLVKGFYPSDIAVEWESNGQPENNYKTTPPVLDSDGSFLLYSKLTVDKSRWQQGNVFSCSVMHEALHNHYTQKSLSLSPGK
chain 2: QVQLVESGGGLVQAGGSLTLSCAAPGRTFGTDVVGWFRQAPGKEREFVASISRSGDGIYYDDSVKGRFTISRNNAWNTVNLQMNSLKVEDTAVYYCAAGDGWSTYDYWGQGTQVTVSSGGGGSGGGGSGGGGSQVQLVESGGGLVQPGGSLRLSCATSGFTFRNNFMSWVRQAPGKGLEWVSTISYGGESTTYAESVKGRFTISRDNAKNTLYLQMNNLKPEDTAVYYCAKATSYDSIRSGSRGQGTQVTVSSGGGGSGGGGSGGGGSEVQLVESGGGLVQTGGSLRLSCAASGGTFSRDAMAWFRQVPGKEREFVALISWSGATTNYADSVKGRFAISRDNGKNTVYLQMNRLKPADTAIYYCAADRRPMGSRSYFEPTEYDDWGQGTQVTVSSGGGGSGGGGSGGGGSDKTHTCPPCPAPEAAGGPSVFLFPPKPKDTLMISRTPEVTCVVVDVSHEDPEVKFNWYVDGVEVHNAKTKPREEQYNSTYRVVSVLTVLHQDWLNGKEYKCKVSNKALGAPIEKTISKAKGQPREPQVYTLPPSRDELTKNQVSLTCLVKGFYPSDIAVEWESNGQPENNYKTTPPVLDSDGSFFLYSRLTVDKSRWQQGNVFSCSVMHEALHNHYTQKSLSLSPGK
Take B1: the “EC50 (nM) pSTAT5, NK, human PBMCs” value was determined as 0.0573 nM; the “EC50 (nM) pSTAT5, Treg, human PBMCs” value came out at 0.151 pM; the “Fold Max signal (% pSTAT5+) Treg/NK” value was determined as 12 fold; the “Max signal (% pSTAT5+), NK” value came out at 7 % pSTAT5+. The “Max signal (% pSTAT5+), Treg” value was 88 % pSTAT5+ and the “fold EC50 NK/Treg” value came out at 379 fold.

B2: DC00046 (other)
chain 1: QVQLVESGGGLVQPGGSLRLSCATSGFTFRNNFMSWVRQAPGKGLEWVSTISYGGESTTYAESVKGRFTISRDNAKNTLYLQMNNLKPEDTAVYYCAKATSYDSIRSGSRGQGTQVTVSSGGGGSGGGGSGGGGSQVQLVESGGGLVQPGGSLRLSCATSGFTFRNNFMSWVRQAPGKGLEWVSTISYGGESTTYAESVKGRFTISRDNAKNTLYLQMNNLKPEDTAVYYCAKATSYDSIRSGSRGQGTQVTVSSDKTHTCPPCPAPEAAGGPSVFLFPPKPKDTLMISRTPEVTCVVVDVSHEDPEVKFNWYVDGVEVHNAKTKPREEQYNSTYRVVSVLTVLHQDWLNGKEYKCKVSNKALGAPIEKTISKAKGQPREPQVYTLPPSRDELTKNQVSLTCLVKGFYPSDIAVEWESNGQPENNYKTTPPVLDSDGSFLLYSKLTVDKSRWQQGNVFSCSVMHEALHNHYTQKSLSLSPGK
chain 2: EVQLVESGGGLVQTGGSLRLSCAASGGTFSRDAMAWFRQVPGKEREFVALISWSGATTNYADSVKGRFAISRDNGKNTVYLQMNRLKPADTAIYYCAADRRPMGSRSYFEPTEYDDWGQGTQVTVSSGGGGSGGGGSGGGGSQVQLVESGGGLVQPGGSLRLSCATSGFTFRNNFMSWVRQAPGKGLEWVSTISYGGESTTYAESVKGRFTISRDNAKNTLYLQMNNLKPEDTAVYYCAKATSYDSIRSGSRGQGTQVTVSSGGGGSGGGGSGGGGSQVQLVESGGGLVQAGGSLTLSCAAPGRTFGTDVVGWFRQAPGKEREFVASISRSGDGIYYDDSVKGRFTISRNNAWNTVNLQMNSLKVEDTAVYYCAAGDGWSTYDYWGQGTQVTVSSGGGGSGGGGSGGGGSDKTHTCPPCPAPEAAGGPSVFLFPPKPKDTLMISRTPEVTCVVVDVSHEDPEVKFNWYVDGVEVHNAKTKPREEQYNSTYRVVSVLTVLHQDWLNGKEYKCKVSNKALGAPIEKTISKAKGQPREPQVYTLPPSRDELTKNQVSLTCLVKGFYPSDIAVEWESNGQPENNYKTTPPVLDSDGSFFLYSRLTVDKSRWQQGNVFSCSVMHEALHNHYTQKSLSLSPGK
Turning to B2, the “Fold Max signal (% pSTAT5+) Treg/NK” value is 4 fold; the “Max signal (% pSTAT5+), NK” value is 6 % pSTAT5+; the “Max signal (% pSTAT5+), Treg” value amounted to 25 % pSTAT5+.

B3: DC00048 (other)
chain 1: B2 chain 1
chain 2: QVQLVESGGGLVQPGGSLRLSCATSGFTFRNNFMSWVRQAPGKGLEWVSTISYGGESTTYAESVKGRFTISRDNAKNTLYLQMNNLKPEDTAVYYCAKATSYDSIRSGSRGQGTQVTVSSGGGGSGGGGSGGGGSQVQLVESGGGLVQAGGSLTLSCAAPGRTFGTDVVGWFRQAPGKEREFVASISRSGDGIYYDDSVKGRFTISRNNAWNTVNLQMNSLKVEDTAVYYCAAGDGWSTYDYWGQGTQVTVSSGGGGSGGGGSGGGGSEVQLVESGGGLVQTGGSLRLSCAASGGTFSRDAMAWFRQVPGKEREFVALISWSGATTNYADSVKGRFAISRDNGKNTVYLQMNRLKPADTAIYYCAADRRPMGSRSYFEPTEYDDWGQGTQVTVSSGGGGSGGGGSGGGGSDKTHTCPPCPAPEAAGGPSVFLFPPKPKDTLMISRTPEVTCVVVDVSHEDPEVKFNWYVDGVEVHNAKTKPREEQYNSTYRVVSVLTVLHQDWLNGKEYKCKVSNKALGAPIEKTISKAKGQPREPQVYTLPPSRDELTKNQVSLTCLVKGFYPSDIAVEWESNGQPENNYKTTPPVLDSDGSFFLYSRLTVDKSRWQQGNVFSCSVMHEALHNHYTQKSLSLSPGK
For the molecule B3, the “EC50 (nM) pSTAT5, NK, human PBMCs” value is 0.176 nM; the “EC50 (nM) pSTAT5, Treg, human PBMCs” value was below 0.1 pM; the “Fold Max signal (% pSTAT5+) Treg/NK” value was found to be 4 fold; the “Max signal (% pSTAT5+), NK” value came to 26 % pSTAT5+. For the same molecule, the “Max signal (% pSTAT5+), Treg” value stood at 95 % pSTAT5+ and the “fold EC50 NK/Treg” value was above 1760 fold.

B4: DC00049 (other)
chain 1: B2 chain 1
chain 2: QVQLVESGGGLVQAGGSLTLSCAAPGRTFGTDVVGWFRQAPGKEREFVASISRSGDGIYYDDSVKGRFTISRNNAWNTVNLQMNSLKVEDTAVYYCAAGDGWSTYDYWGQGTQVTVSSGGGGSGGGGSGGGGSEVQLVESGGGLVQTGGSLRLSCAASGGTFSRDAMAWFRQVPGKEREFVALISWSGATTNYADSVKGRFAISRDNGKNTVYLQMNRLKPADTAIYYCAADRRPMGSRSYFEPTEYDDWGQGTQVTVSSGGGGSGGGGSGGGGSDKTHTCPPCPAPEAAGGPSVFLFPPKPKDTLMISRTPEVTCVVVDVSHEDPEVKFNWYVDGVEVHNAKTKPREEQYNSTYRVVSVLTVLHQDWLNGKEYKCKVSNKALGAPIEKTISKAKGQPREPQVYTLPPSRDELTKNQVSLTCLVKGFYPSDIAVEWESNGQPENNYKTTPPVLDSDGSFFLYSRLTVDKSRWQQGNVFSCSVMHEALHNHYTQKSLSLSPGK
For the molecule B4, the “EC50 (nM) pSTAT5, NK, human PBMCs” value was found to be 0.198 nM; the “EC50 (nM) pSTAT5, Treg, human PBMCs” value was 0.00336 nM; the “Fold Max signal (% pSTAT5+) Treg/NK” value stood at 4 fold; the “Max signal (% pSTAT5+), NK” value came to 27 % pSTAT5+. The “Max signal (% pSTAT5+), Treg” value was 95 % pSTAT5+ and the “fold EC50 NK/Treg” value came out at 59 fold.

B5: DC00047 (other)
chain 1: B2 chain 1
chain 2: EVQLVESGGGLVQTGGSLRLSCAASGGTFSRDAMAWFRQVPGKEREFVALISWSGATTNYADSVKGRFAISRDNGKNTVYLQMNRLKPADTAIYYCAADRRPMGSRSYFEPTEYDDWGQGTQVTVSSGGGGSGGGGSGGGGSQVQLVESGGGLVQAGGSLTLSCAAPGRTFGTDVVGWFRQAPGKEREFVASISRSGDGIYYDDSVKGRFTISRNNAWNTVNLQMNSLKVEDTAVYYCAAGDGWSTYDYWGQGTQVTVSSGGGGSGGGGSGGGGSDKTHTCPPCPAPEAAGGPSVFLFPPKPKDTLMISRTPEVTCVVVDVSHEDPEVKFNWYVDGVEVHNAKTKPREEQYNSTYRVVSVLTVLHQDWLNGKEYKCKVSNKALGAPIEKTISKAKGQPREPQVYTLPPSRDELTKNQVSLTCLVKGFYPSDIAVEWESNGQPENNYKTTPPVLDSDGSFFLYSRLTVDKSRWQQGNVFSCSVMHEALHNHYTQKSLSLSPGK
Take B5: the “Fold Max signal (% pSTAT5+) Treg/NK” value worked out at 1 fold; the “Max signal (% pSTAT5+), NK” value was found to be 0 % pSTAT5+; the “Max signal (% pSTAT5+), Treg” value is 0 % pSTAT5+.
